The text below walks through data of US20100330078A1 (Pfizer, published 2010).

Where a chain is given by its changes, count along the chain named. Names and notes keep the numbering of the source.

As a reminder, the Kd is the constant that tells how readily two partners part at equilibrium. A lower Kd goes with a tighter complex.

The target in experiment [1] is T1, Human FcγRIIIa/158V (human, UniProt P08637 17-208, limits assumed).
T1 construct: also called Human FcγRIII/158V
Description: Biacore, KD against 22B5 wild type IgG1. Here is the method: (§1) The ability of 22B5/DLE, which contains the IgG1 DLE triple mutations (as discussed previously in Example 2), to enhance binding to the FcγRs was evaluated in a Biacore binding experiment. The FcγR binding affinities of 22B5/DLE were compared with the binding affinity of wild type (wt) IgG1. […] The binding affinity comparison of 22B5/DLE and wild type IgG1 was also evaluated against the murine Fcγ receptors. The greatest enhancement in binding was to the mFcγRIV, followed by mFcγRI, and mFcγRIII (see FIG. 5).
On the technique in general: Surface plasmon resonance follows binding to a sensor surface in real time, without labels.

The target of experiment [2] is T2, Murine FcγRIV (murine, UniProt A0A0B4J1G0 21-203).
T2 construct: Construct not described; also called mFcγRIV
T2 sequence: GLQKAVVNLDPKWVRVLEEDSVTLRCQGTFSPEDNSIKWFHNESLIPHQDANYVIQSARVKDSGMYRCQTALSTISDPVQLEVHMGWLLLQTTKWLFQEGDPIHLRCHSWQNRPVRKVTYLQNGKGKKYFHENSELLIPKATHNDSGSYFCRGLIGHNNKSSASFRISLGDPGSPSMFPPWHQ
The experiment in a line: Biacore, KD against 22B5 wild type IgG1. The method, then:
as §1

In experiment [3] the target is T3, Human FcγRIIa/131R (human, UniProt P12318 36-218, limits assumed).
T3 construct: Polymorphic variant 131R; construct not described
T3 sequence (looked up): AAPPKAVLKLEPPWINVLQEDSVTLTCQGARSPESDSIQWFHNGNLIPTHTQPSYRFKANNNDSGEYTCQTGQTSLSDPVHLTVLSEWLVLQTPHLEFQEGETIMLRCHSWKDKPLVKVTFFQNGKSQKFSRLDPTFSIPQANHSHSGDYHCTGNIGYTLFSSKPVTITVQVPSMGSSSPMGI
The experiment in a line: Biacore, KD against 22B5 wild type IgG1. The method, then:
as §1

For experiment [4], the target named is T4, Human FcγRIIIa/158F (human, UniProt P08637 17-208, limits assumed).
T4 construct: also called Human FcγRIII/158F
Description: Biacore, KD against 22B5 wild type IgG1. Here is the method:
as §1

For experiment [5], the target named is T5, Human FcγRI (human, UniProt P12314 16-288, limits assumed).
T5 construct: Construct used in Biacore is not described
The experiment in a line: Biacore, KD against 22B5 wild type IgG1. The method, then:
as §1

Experiment [6] deals with T6, Murine FcγRI (murine, UniProt P26151 25-297, limits assumed).
T6 construct: Construct not described; also called mFcγRI
T6 sequence (looked up): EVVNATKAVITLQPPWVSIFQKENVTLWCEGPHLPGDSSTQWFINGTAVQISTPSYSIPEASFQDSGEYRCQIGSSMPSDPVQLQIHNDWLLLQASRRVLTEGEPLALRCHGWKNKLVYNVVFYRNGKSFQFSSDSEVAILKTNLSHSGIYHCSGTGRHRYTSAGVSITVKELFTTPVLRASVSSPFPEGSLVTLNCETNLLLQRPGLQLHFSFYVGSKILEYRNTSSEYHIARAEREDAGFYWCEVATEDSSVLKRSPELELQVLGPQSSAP
The experiment in a line: Biacore, KD against 22B5 wild type IgG1. The method, then: as §1

Experiment [7] concerns the target T7, Human FcγRIIa/131H (human, UniProt P12318 36-218, limits assumed).
T7 construct: Polymorphic variant 131H; construct not described
T7 sequence (looked up): T3 sequence (looked up) with R132H
The experiment in a line: Biacore, KD against 22B5 wild type IgG1. Here is the method: as §1

The target in experiment [8] is T8, Murine FcγRIII (murine, UniProt P08508 31-215, limits assumed).
T8 construct: Construct not described; also called mFcγRIII
T8 sequence (looked up): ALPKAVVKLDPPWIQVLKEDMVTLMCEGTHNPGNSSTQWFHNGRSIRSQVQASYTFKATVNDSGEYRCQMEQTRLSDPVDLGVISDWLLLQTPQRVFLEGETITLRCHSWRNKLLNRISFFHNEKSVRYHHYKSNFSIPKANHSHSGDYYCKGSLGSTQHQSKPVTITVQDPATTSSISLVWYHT
The experiment in a line: Biacore, KD against 22B5 wild type IgG1. Here is the method: as §1

The target of experiment [9] is T1, Human FcγRIIIa/158V. The experiment in a line: Biacore. Here is the method: as §1
Experiment [10] addresses T2, Murine FcγRIV. The experiment in a line: Biacore. Here is the method:
as §1

Experiment [11] addresses T3, Human FcγRIIa/131R. Description: Biacore. The method, then: as §1
Experiment [12] deals with T4, Human FcγRIIIa/158F. The experiment in a line: Biacore. Here is the method: as §1
Experiment [13] deals with T5, Human FcγRI. The experiment in a line: Biacore. The method, then:
as §1

Experiment [14] has as its target T6, Murine FcγRI. The experiment in a line: Biacore. Here is the method:
as §1

Experiment [15] has as its target T7, Human FcγRIIa/131H. The experiment in a line: Biacore. Here is the method:
as §1

Experiment [16] concerns the target T8, Murine FcγRIII. Description: Biacore. The method, then:
as §1

T1 sequence (P08637 17-208 F176V limits assumed): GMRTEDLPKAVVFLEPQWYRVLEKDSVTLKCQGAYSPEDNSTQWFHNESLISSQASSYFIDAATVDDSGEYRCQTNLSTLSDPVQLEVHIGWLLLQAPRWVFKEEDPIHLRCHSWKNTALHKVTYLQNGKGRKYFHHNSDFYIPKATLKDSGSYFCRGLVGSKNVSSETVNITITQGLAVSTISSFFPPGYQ
T5 sequence (P12314 16-288 limits assumed): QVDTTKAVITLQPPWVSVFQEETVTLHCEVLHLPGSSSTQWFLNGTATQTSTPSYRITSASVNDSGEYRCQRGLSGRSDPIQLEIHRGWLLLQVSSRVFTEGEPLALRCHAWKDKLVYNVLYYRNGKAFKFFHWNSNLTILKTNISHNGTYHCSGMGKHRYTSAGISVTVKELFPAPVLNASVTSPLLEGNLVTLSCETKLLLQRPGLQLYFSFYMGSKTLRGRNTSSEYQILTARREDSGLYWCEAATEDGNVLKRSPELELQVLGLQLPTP
T4 sequence (P08637 17-208 limits assumed): as the sequence (P08637 17-208 F176V limits assumed) above, with V160F counted along it

B1: 22B5/DLE (antibody, human IgG1, kappa)
heavy: QLQLQESGPGLVKPSETLSLTCTVSGGSISSSSYWGWIRQPPGKGLEWIGSIYYSGRNYNNPSLKSRVTISVDTSKNQFSLKLSSVTAADTAVYYCARHYYGSGSSYYYYDLDVWGQGTTVTVSSASTKGPSVFPLAPSSKSTSGGTAALGCLVKDYFPEPVTVSWNSGALTSGVHTFPAVLQSSGLYSLSSVVTVPSSSLGTQTYICNVNHKPSNTKVDKKVEPKSCDKTHTCPPCPAPELLGGPDVFLFPPKPKDTLMISRTPEVTCVVVDVSHEDPEVKFNWYVDGVEVHNAKTKPREEQYNSTYRVVSVLTVLHQDWLNGKEYKCKVSNKALPLPEEKTISKAKGQPREPQVYTLPPSREEMTKNQVSLTCLVKGFYPSDIAVEWESNGQPENNYKTTPPVLDSDGSFFLYSKLTVDKSRWQQGNVFSCSVMHEALHNHYTQKSLSLSPGK
light: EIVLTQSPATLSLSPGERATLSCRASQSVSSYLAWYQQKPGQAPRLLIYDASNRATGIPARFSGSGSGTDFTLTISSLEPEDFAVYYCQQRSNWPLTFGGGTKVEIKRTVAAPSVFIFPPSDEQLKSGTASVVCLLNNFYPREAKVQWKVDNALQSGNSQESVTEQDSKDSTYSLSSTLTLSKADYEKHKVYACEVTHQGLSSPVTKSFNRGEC
notes: Human IgG1 with Fc mutations S247D, A338L, I340E; the VH already holds the germline back-mutations I30S and N33S; also called 22B5 IgG1 DLE; 22B5 G1 DLE
B1: the “Fold enhancement over wt IgG1” value is 70 fold in [1]; 260 fold in experiment [2]; 2.3 fold in experiment [3]; 122 fold in experiment [4]; 6 fold in [5]; 14 fold in experiment [6]. In addition, the “Fold enhancement over wt IgG1” value was 1.6 fold in experiment [7] and 5 fold in experiment [8]. Further, the Kd stood at 9.4 nM in experiment [9]; 9.1 nM in experiment [10]; 650 nM in [11]; 27 nM in experiment [12]; 5.8 nM in experiment [13]; 96 nM in [14]. Further, the values for the Kd in experiment [15] and in [16] were 1000 nM and 1700 nM, respectively.
